Data reported in US7122360.

How the values were obtained:
[1] = test system: KKRNRTLSVA with the arginine at position n-5 changed to leucine
CREBtide = test system: T1, CREBtide
T1 sequence: EILSRRPSYRK

peptide KKRNRTLSVA = test system: T2, peptide KKRNRTLSVA
T2 sequence: KKRNRTLSVA

Crosstide = test system: T3, Crosstide
T3 sequence: GRPRTSSFAEG

[2] = test system: T4, KKRNRTLSVA with the arginine at position n-3 changed to lysine
T4 sequence: KKRNKTLSVA

[3] = test system: GST-MAPKAP-K1a [GST: P08515]
Sequence of GST-MAPKAP-K1a [GST: P08515] (P08515 whole entry, looked up): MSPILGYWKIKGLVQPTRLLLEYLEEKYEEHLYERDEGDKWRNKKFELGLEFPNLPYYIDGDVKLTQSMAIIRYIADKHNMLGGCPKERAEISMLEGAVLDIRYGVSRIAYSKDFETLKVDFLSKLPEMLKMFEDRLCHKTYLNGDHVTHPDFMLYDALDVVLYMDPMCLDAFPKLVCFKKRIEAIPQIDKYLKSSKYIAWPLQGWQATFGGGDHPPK

Sequence of GST-CREB [GST: P08515] (P08515 whole entry, looked up): as above
Sequence of GST-MSK1 (chain, as listed by the source): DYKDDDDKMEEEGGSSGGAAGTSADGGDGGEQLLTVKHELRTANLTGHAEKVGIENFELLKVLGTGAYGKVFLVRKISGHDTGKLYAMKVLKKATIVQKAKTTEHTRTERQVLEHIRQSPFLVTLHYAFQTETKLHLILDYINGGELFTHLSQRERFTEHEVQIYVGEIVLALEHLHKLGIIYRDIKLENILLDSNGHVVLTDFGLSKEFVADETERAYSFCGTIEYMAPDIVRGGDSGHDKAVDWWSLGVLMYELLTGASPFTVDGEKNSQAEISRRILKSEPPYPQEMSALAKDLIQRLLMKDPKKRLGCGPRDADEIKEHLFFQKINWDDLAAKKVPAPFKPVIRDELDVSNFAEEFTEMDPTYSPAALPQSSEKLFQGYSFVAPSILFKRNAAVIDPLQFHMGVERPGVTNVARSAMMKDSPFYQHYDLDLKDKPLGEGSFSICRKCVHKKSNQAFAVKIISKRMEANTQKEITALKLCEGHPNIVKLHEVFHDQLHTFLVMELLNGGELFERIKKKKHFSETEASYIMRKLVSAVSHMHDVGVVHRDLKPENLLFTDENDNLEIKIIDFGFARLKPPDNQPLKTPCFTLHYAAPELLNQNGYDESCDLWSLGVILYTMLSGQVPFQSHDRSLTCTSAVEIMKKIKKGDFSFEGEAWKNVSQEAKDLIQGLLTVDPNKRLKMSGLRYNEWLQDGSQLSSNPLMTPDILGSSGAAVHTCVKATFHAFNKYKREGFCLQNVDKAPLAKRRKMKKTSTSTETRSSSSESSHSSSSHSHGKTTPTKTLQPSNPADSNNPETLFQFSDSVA

GST-MAPKAP-K1a was tested. Which Km relative to KKRNRTLSVA [1] did it give?
Its Km relative to KKRNRTLSVA is 5 fold.

And the “Km relative to MSK1” value (CREBtide)?
Its value is “Km values that were at least 200-fold higher”.

And the “Km and Vmax” value (peptide KKRNRTLSVA)?
Its value is “almost identical Km and Vmax values as for Crosstide”.

What about the Km (Crosstide) of the same substance?
The Km was 2 to 3 µM.

And the Km (GST-CREB [GST: P08515])?
The Km was “the Km was too high to be measured”.

And the “Km relative to KKRNRTLSVA” value [2]?
The value was “increased the Km about 100-fold”.

With GST-MAPKAP-K2 as the substance, how does the Km (GST-CREB [GST: P08515]) read?
The Km was “the Km was too high to be measured”.

And the “phosphorylation of Ser98 relative to Ser133 of CREB” value (GST-CREB [GST: P08515])?
Its value is 10-fold higher level than Ser133.

What about the “phosphorylation of substrate in vitro” value (heat shock protein 27) of the same substance?
Its value is “much more active towards heat shock protein 27”.

For activated GST-MAPK2/ERK2, which “activity towards Crosstide after incubation with MgATP and activated MAPK2/ERK2” value [3] is on record?
The value was “enhanced over 100-fold”.

And the “activity towards Crosstide after incubation with MgATP and activated MAPK2/ERK2” value (GST-MSK1)?
The value was “enhanced over 100-fold”.

Which “activation in vitro (activity towards Crosstide)” value (“activation in vitro” below) [3] does the source give for activated GST-SAPK1/JNK1γ here?
The value was “did not activate”.

And the “activation in vitro” value (GST-MSK1)?
The value was “did not activate”.

How did the “activation in vitro” value [3] turn out when activated GST-SAPK2a/p38a was run?
Its value is “could not”.

What about the “activation in vitro” value (GST-MSK1) of the same substance?
The value was “could also be activated similarly”.

For activated GST-SAPK2b/p38β, which “activation in vitro” value [3] is on record?
The value was “could not”.

What about the “activation in vitro” value (GST-MSK1) of the same substance?
The value was “could also be activated similarly”.

With activated GST-SAPK3/p38γ as the substance, how does the “activation in vitro” value [3] read?
Its value is “did not activate”.

What about the “activation in vitro” value (GST-MSK1) of the same substance?
Its value is “did not activate”.

activated GST-SAPK4/p38δ was tested. Which “activation in vitro” value [3] did it give?
Its value is “did not activate”.
